{
  "source": "patent US12076390",
  "about": "(Dana-Farber, dated 2024)",
  "binders": {"B1": {"name": "3I14 IgG1 (antibody, V domains shown)", "VH": "QVQLLESGGGVVQPGRSLRLSCAASGFTFSNYGMHWVRQAPGKGLEWVAIISFDGSKKYYANSVKGRSTISRDNSKNTLSLQMNSLGPEDTALYYCAKLPSPYYFDSRFVWVAASAFHFWGQGILVTVSS", "VL": "NFMLTQPPSASGTPGQRVTISCSGSSSNIGGNTVHWFQQLPGTAPKLLIYTNSLRPSGVPDRFSGSKSGTSASLAISGLQSEDEADYYCAAWDDSLNGQVFGGGTKLTVL"}},
  "key": {"[1]": {"molecular_target": "Cell surface-expressed HA of A/Aichi/2/68 (H3-A2/68) (influenza A virus A/Aichi/2/68 (H3N2), UniProt P03437 17-566)", "assay": "flow cytometry on HA-transfected cells"}, "[2]": {"molecular_target": "DTT reduced, trimeric HA2 (tHA2) of surface-expressed H3-A2/68 (influenza A virus A/Aichi/2/68 (H3N2), UniProt P03437 346-566)", "assay": "flow cytometry on HA-transfected cells after trypsin, pH 4.9 and DTT"}, "[3]": {"molecular_target": "HA of A/Vietnam/1203/04 on pseudotyped virus (H5-VN04 pseudovirus) (influenza A virus A/Vietnam/1203/04 …)", "assay": "cell-based or functional assay"}, "[4]": {"molecular_target": "HA on infectious virus A/Brisbane/10/07 (H3N2-BR07) (influenza A virus A/Brisbane/10/07 …)", "assay": "cell-based or functional assay"}, "[5]": {"molecular_target": "Recombinant full length HA of H1 A/Puerto Rico/8/34 (H1-PR8) (influenza A virus A/Puerto Rico/8/34 …, UniProt P03452 18-565)", "assay": "recombinant HA; footnote says SPR biosensor, methods describe BLI"}, "[6]": {"molecular_target": "Recombinant full length HA of H1 A/Solomon Islands/3/06 (H1-SI06) (influenza A virus A/Solomon …)", "assay": "recombinant HA; footnote says SPR biosensor, methods describe BLI"}, "[7]": {"molecular_target": "Recombinant full length HA of H14 A/mallard/Astrakhan/263/82 (H14-AS82) (influenza A virus …, UniProt P26136 18-568)", "assay": "recombinant HA; footnote says SPR biosensor, methods describe BLI"}},
  "data": [
    {"binder": "B1", "values": [
      {"measurement": "binding result", "setting": "[1]", "value": "binds"},
      {"measurement": "binding result", "setting": "[2]", "value": "no binding"},
      {"measurement": "IC50, neutralization of H5-VN04 pseudovirus", "setting": "[3]", "value": 0.0816, "unit": "µg/mL"},
      {"measurement": "IC50, neutralization of pseudovirus", "setting": "[3]", "value": 2.14, "unit": "µg/mL"},
      {"measurement": "IC50, neutralization of infectious H3-BR07 virus", "setting": "[4]", "value": 0.305, "unit": "µg/mL"},
      {"measurement": "Kd", "setting": "[5]", "value": 0.08, "unit": "nM"},
      {"measurement": "Kd", "setting": "[6]", "value": 0.03, "unit": "nM"},
      {"measurement": "Kd", "setting": "[7]", "value": 0.29, "unit": "nM"}
    ]}
  ]
}
